Measurements taken from doi:10.1101/2020.05.13.093591.

Target: PfPDI8 (PF3D7_0827900), 3xV5-tagged at the endogenous locus (P. falciparum (3D7))
Experiment: cross-linking + co-IP

PfBiP, the Hsp70 Binding immunoglobulin Protein (natural protein)
fold increase of co-immunoprecipitated PfBiP with DVSF against without DVSF: 2 fold
